Biological target: the molecule itself
Test: crystal structure; space group P2(1)3, one molecule in the asymmetric unit, trimer built by crystallographic three-fold symmetry; 3.5 Å dataset, molecular replacement with PDB 4TJV

B1: luminal domain of vacuolar sorting receptor 1 (VSR1) from Arabidopsis thaliana, residues 1 to 560 (domain or fragment, UniProt P93026 23-560, looked up)
chain: VEKNNLKVTSPDSIKGIYECAIGNFGVPQYGGTLVGTVVYPKSNQKACKSYSDFDISFKSKPGRLPTFVLIDRGDCYFTLKAWIAQQAGAAAILVADSKAEPLITMDTPEEDKSDADYLQNITIPSALITKTLGDSIKSALSGGDMVNMKLDWTESVPHPDERVEYELWTNSNDECGKKCDTQIEFLKNFKGAAQILEKGGHTQFTPHYITWYCPEAFTLSKQCKSQCINHGRYCAPDPEQDFTKGYDGKDVVVQNLRQACVYRVMNDTGKPWVWWDYVTDFAIRCPMKEKKYTKECADGIIKSLGIDLKKVDKCIGDPEADVENPVLKAEQESQIGKGSRGDVTILPTLVVNNRQYRGKLEKGAVLKAMCSGFQESTEPAICLTEDLETNECLENNGGCWQDKAANITACRDTFRGRLCECPTVQGVKFVGDGYTHCKASGALHCGINNGGCWRESRGGFTYSACVDDHSKDCKCPLGFKGDGVKNCEDVDECKEKTVCQCPECKCKNTWGSYECSCSNGLLYMREHDTCIGSGKVG
modifications: N-glycosylation at Asn289 (two N-acetylglucosamine)
notes: signal peptide in the construct; vacuolar sorting receptor 1 (VSR1), Arabidopsis thaliana, luminal part, residues 1 to 560; the model of the structure runs from Phe21 to Ala465 (Ser120-Asp137 disordered); Trimer by crystallographic three-fold symmetry; one molecule in the asymmetric unit; also called AtVSR1; full-length VSR1 luminal domain
  stoichiometry N: 3
